What was measured:
[1] = test system: H929 cells; test: In vitro sensitivity to abraxane and bortezumib; assay type: cell-based; conditions: Homo sapiens, NCI-H929
Protocol: The sensitivity of H929 and U266B cells to abraxane and bortezumib (BTZ) was measured in vitro.

[2] = test system: H929 cells; test: Cell viability by trypan blue staining after 20 minute exposure; assay type: cell-based; conditions: 100 ng/ml for 20 minutes
Protocol: H929 cells were exposed to 100 ng/ml LMB70 for 20 minutes. Cell viability was analyzed with trypan blue staining.

[3] = test system: U266B; test: WST assay of immunotoxin activity; assay type: cell-based
Protocol: (§1) The activity of the anti-BCMA immunotoxins against BCMA-expressing cell lines and cells from four multiple myeloma patients was tested by WST assay.

[4] = test system: JJN-3; test: WST assay of immunotoxin activity; assay type: cell-based
Protocol: as §1

[5] = test system: Jeko-1; test: WST assay of immunotoxin activity; assay type: cell-based
Protocol: as §1

[6] = test system: H929; test: WST assay of immunotoxin activity; assay type: cell-based
Protocol: as §1

[7] = test system: RPMI-8226; test: WST assay of immunotoxin activity; assay type: cell-based
Protocol: as §1

[8] = test system: LP-1; test: WST assay of immunotoxin activity; assay type: cell-based
Protocol: as §1

[9] = test system: HUT-102; test: WST assay of immunotoxin activity; assay type: cell-based
Protocol: as §1

[10] = test system: KMS-18; test: WST assay of immunotoxin activity; assay type: cell-based
Protocol: as §1

[11] = test system: BCMA-positive H929 cells; test: Cell killing at fixed dose, trypan blue staining after timed exposure; assay type: cell-based; conditions: H929, 100 ng/ml
Protocol: Cell killing activity was measured by trypan blue staining of cells taken at various time points (days) after exposure to the immunotoxin.

[12] = test system: H929 cells; test: WST-8 assay of AF647-labeled and unlabeled LMB70; assay type: cell-based; conditions: in ng/mL
Protocol: (§2) LMB70 was labeled with AF647 for measurement of uptake in vivo. LMB70 was labeled twice with AF647 using an AF647 labeling kit (Life Technologies). Labeling efficacy and activity were measured by WST-8 assay and affinity measurement.

[13] = biological target: T1, BCMA (Homo sapiens, UniProt Q02223); test: Affinity measurement of AF647-labeled and unlabeled LMB70; assay type: binding; conditions: after the first labeling
T1 sequence (Q02223 1-184): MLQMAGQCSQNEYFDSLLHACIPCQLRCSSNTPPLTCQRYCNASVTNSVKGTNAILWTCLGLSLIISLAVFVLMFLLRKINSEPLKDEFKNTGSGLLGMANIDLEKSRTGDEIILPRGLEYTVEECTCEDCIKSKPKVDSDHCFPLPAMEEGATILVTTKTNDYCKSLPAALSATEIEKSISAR
Protocol: as §2

[14] = test system: MM-1 cells from patient; test: WST assay, cells from multiple myeloma patient; assay type: cell-based, human; conditions: cells from patient MM-1
Protocol: as §1

[15] = test system: MM-3 cells from patient; test: WST assay, cells from multiple myeloma patient; assay type: cell-based, human; conditions: cells from patient MM-3
Protocol: as §1

[16] = test system: MM-2 cells from patient; test: WST assay, cells from multiple myeloma patient; assay type: cell-based, human; conditions: cells from patient MM-2
Protocol: as §1

[17] = test system: MM-4 cells from patient; test: WST assay, cells from multiple myeloma patient; assay type: cell-based, human; conditions: cells from patient MM-4
Protocol: as §1

[18] = test system: H929 xenograft tumors; test: Antitumor activity in mice with H929 xenograft tumors; assay type: in vivo; conditions: 1.5 mg/kg QODX5, SCID mice
Protocol: To test the in vivo efficacy of LMB38 and LMB70, tumors were grown in SCID mice using the most sensitive cell line H929. Based on the previous toxicity data, 1.5 mg/kg QODX5 doses were used on 5 mice in each group. […] However, the tumors grew back once the treatment was finished.

[19] = test system: H929 cells; test: Cell viability by flow cytometry (Annexin V/7AAD staining) after various exposure durations; assay type: cell-based; conditions: viability after 3 days
Protocol: H929 cells were exposed to LMB70 for various durations. Cell viability was analyzed after 3 days by flow cytometry (Annexin V/7AAD staining).
H929 cells were exposed to 2 ng/ml LMB70 for various lengths of time from 10 minutes up to 72 hours. Cell viability was analyzed after 3 days by flow cytometry (Annexin V/7AAD staining).

[20] = test system: H929 cells; test: Cell viability and cell density at varying LMB70 concentrations; assay type: cell-based; conditions: 2 hours or 6 hours exposure
Protocol: H929 cells were exposed to 2, 10, and 100 ng/ml LMB70 for 2 hours or 6 hours. Cell viability and cell density were analyzed.

For `CC(C)C[C@H](NC(=O)[C@H](Cc1ccccc1)NC(=O)c1cnccn1)B(O)O` [BTZ, bortezomib], the IC50 [1] was 4 nM.

B1: LMB70: anti-BCMA immunotoxin BM306-Fab-LR-GGS (conjugate)
VH: EVQLQQSGPELVKPGASVKISCKTSGYTFTEYTINWVKQSHGKSLEWIGDIYPDNYNIRYNQKFKGKATLTVDKSSSTAYMELRSLSSEDSAIYYCANHDFFVFWGQGTLVTVSA
VL: DIQMTQATSSLSASLGDRVTINCRTSQDISNHLNWYQQKPDGTVKLLIYYTSRLQSGVPSRFSGSGSGTDYSLTISNLEQEDIGTYFCHQGNTLPPTFGGGTKLEIK
modifications: left off: another chain or arm of the molecule; a dimerising Fc or GST; small tags and cut ends
notes: anti-BCMA immunotoxin BM306-Fab-LR-GGS
In the case of B1, the “time after exposure at which cells started to die” value [2] is reported as 24 h, the “time after which all cells were dead” value [2] is reported as 3 days and the “IC50” value [3] is reported as 0.005 µg/mL. The “IC50” value [4] was 0.004 µg/mL, the “IC50” value [5] was greater than 0.1 µg/mL and the “IC50” value [6] was 0.0011 µg/mL. The “IC50” value [7] was 0.0051 µg/mL, the “IC50” value [8] was 0.02 µg/mL and the “IC50” value [9] was greater than 0.1 µg/mL. The “IC50” value [10] was 0.065 µg/mL, the Percent dead ([11]; 2 hr exposure, D-1) was 43% and the Percent dead ([11]; 2 hr exposure, D-2) was 88%. It also gave a Percent dead ([11]; 2 hr exposure, D-5) of 100%, a Percent dead ([11]; 2 hr exposure, D-7) of 100% and a Percent dead ([11]; 4 hr exposure, D-1) of 44%. It also gave a Percent dead ([11]; 4 hr exposure, D-2) of 89%, a Percent dead ([11]; 4 hr exposure, D-5) of 100% and a Percent dead ([11]; 4 hr exposure, D-7) of 100%. It also gave a Percent dead ([11]; 6 hr exposure, D-1) of 42%, a Percent dead ([11]; 6 hr exposure, D-2) of 88% and a Percent dead ([11]; 6 hr exposure, D-5) of 100%. The Percent dead ([11]; 6 hr exposure, D-7) was 100%, the Percent dead ([11]; 24 hr exposure, D-1) was 51% and the Percent dead ([11]; 24 hr exposure, D-2) was 95%. The Percent dead ([11]; 24 hr exposure, D-5) was 100%, the Percent dead ([11]; 24 hr exposure, D-7) was 100% and the “IC50 (WST-8)” value ([12]; after the first labeling) was 1.532. For the same molecule, the “IC50 (WST-8)” value ([12]; after the second labeling) was 2.758, the “Bmax (affinity measurement)” value [13] was 2220 and the “IC50” value [14] was 0.0004 µg/mL. The “IC50” value [15] was 0.0023 µg/mL, the “IC50” value [16] was 0.017 µg/mL and the “IC50” value [17] was 0.0179 µg/mL. For the same molecule, the “tumor growth compared to PBS-treated mice” value [18] was “delayed”, the “tumors once the treatment was finished” value [18] was “grew back” and the cell death ([19]; 2 ng/ml, even after 24 hours of exposure) was “did not die”. The “exposure time sufficient to kill cells” value ([19]; 100 ng/ml) was no more than 10 min, the “effect on cell viability and growth” value ([20]; 2 ng/ml) was “slight growth inhibition, but no cell killing” and the “effect on cell viability and growth” value ([20]; 10 ng/ml) was “not enough to kill all cells”.

Reference: patent US10925969B2, “Anti-BCMA polypeptides and proteins” (priority 2015, dated 2021)
